Measurements from patent publication US20170165366A1.

Biological target: mouse TIGIT-His (SEQ ID NO: 3) (mouse) (UniProt P86176)
Assay: BLI (Octet QKe), SEC1 on AMC sensor, mouse TIGIT-His 33 to 1.22 nM, 1:1 global fit

mouse TIGIT-His (SEQ ID NO: 3) (mouse), sequence (P86176 other isoform, or with tags, fused parts or gaps limits assumed, form in doubt): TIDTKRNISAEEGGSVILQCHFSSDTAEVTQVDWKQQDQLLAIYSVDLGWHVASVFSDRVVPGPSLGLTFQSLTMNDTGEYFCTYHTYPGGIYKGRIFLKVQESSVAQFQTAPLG

B1: SEC1 mouse IgG2a N297A (antibody, V domains shown)
VH: EVQLVESGGGLTQPGKSLKLSCEASGFTFSSFTMHWVRQSPGKGLEWVAFIRSGSGIVFYADAVRGRFTISRDNAKNLLFLQMNDLKSEDTAMYYCARRPLGHNTFDSWGQGTLVTVSS
VL: DIVMTQSPSSLAVSPGEKVTMTCKSSQSLYYSGVKENLLAWYQQKPGQSPKLLIYYASIRFTGVPDRFTGSGSGTDYTLTITSVQAEDMGQYFCQQGINNPLTFGDGTKLEIKR
- Kd: 0.32 nM
- koff: 0.0006 s⁻¹
- kon: 1.9e+06 M⁻¹ s⁻¹
